Test results from the supplement of paper PMC10126150.
± gives the standard deviation of the averaged measurements.

The sequences below were run on ATP (assay: switch fluorescence ratio, 500 uM ATP over buffer (Cy3 cluster intensity, sum of 5 cycles each) (fold (ratio)); higher = stronger signal-on switching upon ATP binding; sequences stand for … in TCGTCGGCAGCGTCAGATGTGTATAAGAGACAGTTTTTTTTTTTTTTTTTTTTTTTTT…TC). Details: aptamer strand: ATP DNA aptamer (quencher-CACCTGGGGGAGTATTGCGGAGGAAGG + anchor), 100 nM annealed; ATP concentration: 500 uM.
In short: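 Exposure to 500 uM ATP lasted 15 min at 22 °C before imaging, and a selection-buffer image was taken beforehand, for Cy3-labelled switching-strand clusters on a modified Illumina MiSeq flow-cell annealed to 100 nM quencher-labelled ATP aptamer. Five buffer/ATP cycles were run with NaOH stripping and re-annealing between them. The fluorescence ratio per cluster is summed target-cycle over summed buffer-cycle Cy3 intensity, averaged per switch-domain sequence. Clusters outside 100-1000 RFU were excluded.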

Sequence	switch fluorescence ratio
CTTGGGCCAC	1 ± 0.032
CTTGGGCCGC	1.13 ± 0.048
CTTGGGCGGA	1.027 ± 0.008
CTTGGGGGAT	0.979 ± 0.038
CTTGGGGGCC	0.986 ± 0.012
CTTGGGGGGG	0.991 ± 0.02
CTTGGGTAGG	1.01 ± 0.035
CTTGGTCCTG	0.9669 ± 0.007
CTTGGTGCTT	0.974 ± 0.021
CTTGGTTTTT	1.01 ± 0.022
CTTGTATCGG	1 ± 0.056
CTTGTCGATT	0.999 ± 0.04
CTTGTGAACG	0.993 ± 0.036
CTTGTGGCTG	1.031 ± 0.0033
CTTGTGGGGT	0.978 ± 0.021
CTTGTTCATG	1 ± 0.017
CTTTAAGTCT	0.994 ± 0.039
CTTTAAGTTG	1.03 ± 0.029
CTTTAATGCC	0.999 ± 0.021
CTTTACCTAC	1.327 ± 0.0078
CTTTACTTCC	2.1 ± 0.024
CTTTACTTCG	1.07 ± 0.027
CTTTATAGGC	1.04 ± 0.017
CTTTATATAC	1.35 ± 0.025
CTTTATGCTG	1.05 ± 0.047

Sequence	switch fluorescence ratio
CTTTATTTAA	1.02 ± 0.02
CTTTATTTGT	1.001 ± 0.009
CTTTATTTTC	1.03 ± 0.039
CTTTCCGTTC	1.2 ± 0.092
CTTTCGATAG	1.06 ± 0.049
CTTTCTTGCT	0.975 ± 0.021
CTTTGAGC	1 ± 0.064
CTTTGGAATA	1.07 ± 0.041
CTTTGGATCA	0.9836 ± 0.0055
CTTTGGGGGA	0.983 ± 0.023
CTTTGGGGGC	0.9593 ± 0.0087
CTTTGGTTG	1.01 ± 0.016
CTTTGTCGAG	1 ± 0.019
CTTTGTTTGA	0.976 ± 0.0076
CTTTTAACGA	1.01 ± 0.03
CTTTTAATGG	1.03 ± 0.068
CTTTTAATTG	0.977 ± 0.037
CTTTTACATA	1.03 ± 0.018
CTTTTAGGGT	0.996 ± 0.024
CTTTTAGGTA	0.9425 ± 0.0069
CTTTTGGGGT	0.991 ± 0.01
CTTTTTAGAG	0.994 ± 0.015
CTTTTTAGTG	0.982 ± 0.023
CTTTTTGGGT	0.968 ± 0.028
CTTTTTTCGA	1.04 ± 0.039

Sequence	switch fluorescence ratio
CTTTTTTTTA	0.985 ± 0.021
GAAAAAAAAT	1 ± 0.067
GAAAAAATGT	0.967 ± 0.028
GAAAAAGTGC	0.989 ± 0.095
GAAAAGGGGA	1.27 ± 0.48
GAAAAGGGTG	0.99 ± 0.051
GAAAAGTGAG	0.975 ± 0.016
GAAAATGCAG	0.999 ± 0.062
GAAACCAGAG	1.39 ± 0.014
GAAACGCGTA	0.994 ± 0.021
GAAACGTAAT	1.19 ± 0.037
GAAACTAATG	1.01 ± 0.013
GAAACTAGAG	0.986 ± 0.0047
GAAACTAGTG	0.996 ± 0.015
GAAAGACGCT	1.15 ± 0.3
GAAAGAGAGG	1.003 ± 0.0076
GAAAGAGATG	1.003 ± 0.008
GAAAGAGGGG	0.989 ± 0.021
GAAAGGCTCT	0.9793 ± 0.0031
GAAAGGGGGT	0.991 ± 0.027
GAAAGGGTAC	1.56 ± 0.65
GAAAGGTATT	0.975 ± 0.021
GAAAGGTCTA	0.987 ± 0.057
GAAAGGTTTT	0.9729 ± 0.0055
GAAAGTGGGA	0.988 ± 0.025

Sequence	switch fluorescence ratio
GAAAGTTCAG	1.002 ± 0.0098
GAAATAAGGC	1.01 ± 0.013
GAAATAGATC	0.953 ± 0.07
GAAATCCAGG	1.297 ± 0.0087
GAAATCGGA	0.993 ± 0.016
GAAATGAGGG	0.977 ± 0.047
GAAATGCGCA	1.08 ± 0.17
GAAATGGGAG	0.998 ± 0.045
GAAATGGGGA	1 ± 0.017
GAAATGGGTT	0.957 ± 0.063
GAAATGTATT	1.04 ± 0.063
GAAATTAGTG	1.01 ± 0.039
GAAATTATCA	0.977 ± 0.025
GAAATTATCG	0.9988 ± 0.0034
GAAATTGCGG	0.989 ± 0.024
GAAATTGTTT	0.991 ± 0.015
GAAATTTAGA	1.01 ± 0.028
GAAATTTTTG	0.985 ± 0.029
GAACATGTAT	0.987 ± 0.026
GAACATTGAG	1.019 ± 0.0034
GAACCACGA	1.05 ± 0.019
GAACCCCCTC	1.21 ± 0.18
GAACCGCGTA	1.11 ± 0.036
GAACGGCTAG	1.02 ± 0.011
GAACGGGACA	1.18 ± 0.065
